Where no end group is shown, it is not given here.
Target: His-G3BP1 (human, UniProt Q13283 1-466)
Test: pull-down

Sequence of His-G3BP1 (Q13283 whole entry): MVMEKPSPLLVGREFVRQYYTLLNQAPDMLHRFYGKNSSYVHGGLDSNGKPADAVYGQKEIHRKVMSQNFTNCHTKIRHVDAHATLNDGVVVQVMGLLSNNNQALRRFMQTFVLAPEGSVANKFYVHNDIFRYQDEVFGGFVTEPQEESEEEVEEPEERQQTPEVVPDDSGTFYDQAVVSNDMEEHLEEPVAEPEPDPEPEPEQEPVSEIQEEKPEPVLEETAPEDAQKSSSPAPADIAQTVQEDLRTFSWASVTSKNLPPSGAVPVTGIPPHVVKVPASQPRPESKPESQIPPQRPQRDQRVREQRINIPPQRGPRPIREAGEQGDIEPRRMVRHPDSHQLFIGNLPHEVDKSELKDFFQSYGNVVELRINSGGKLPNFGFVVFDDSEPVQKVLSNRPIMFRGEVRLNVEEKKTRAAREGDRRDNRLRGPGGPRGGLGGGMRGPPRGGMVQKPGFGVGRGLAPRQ

- binding result: binds
Binder: YIFGDFSPDEFNQFFVTP-biotin [USP10_(8–25)WT peptide]

Reference: paper PMC4810302 (The Journal of Cell Biology, 2016)
